A short description of the data set: soluble on expression in E. coli; label from the status in PepcDB or PDB records.
As to “MAVIYKTTAHASAGREGVVQTVDGFTVSLAFPKPGATHQDKNNPEQLFASAYAGCFSQAVRVVLQQHQLQLATQPIVGVSVELHDQDGLFHIKAGVELAITGVDQTTAQTVITAAHAMCPFSRLIKPENFLGLTLNGAKL”, the “soluble on expression in E. coli” value is reported as “soluble”.

Turning to “MYSDHTQTEAFRGELHGVYGLLFTDGGAPSSAQTSTDFIDASLGVNGYLAADGRGTLAGRVSGVLAGQPAVVGLRNAQAQYWATATGSGDYQINGVRPGRYRMTLYQHELEVAQRDVEVFAGATAQAALQAVSLPGAVKWLEHHHHHH”, the “soluble on expression in E. coli” value is listed as “not soluble”. Regarding “QVQLQQSGTELVKSGASVKLSCTASGFNIKDTHMNWVKQRPEQGLEWIGRIDPANGNIQYDPKFRGKATITADTSSNTAYLQLSLTSEDTAVYYCATKVIYYQGRGAMDYWGQGTTLTVS”, the “soluble on expression in E. coli” value is “soluble”. On to “MANRMILNETAWFGRGAVDALTDEVTRRGYHKALIVTDKTLVQCGVVDKVTSRMDAAGLAWEIYAGVIPNPTISVVQEGLKVFTQSGADYLIAIGGGSPQDTCKAIGIISNNPEFADVRSLEGLSPTRKPSVPIMAIPTTAGTAAEVTINYVITDEEKRRKFVCVDPHDIPQAAFIDADMMDGMPPALKAATGVDALTHAIEGYITRAAWALTDALHIKAIEIIAGALRGAVAGEKEAGEAMALGQYVAGMGFSNVGLGLVHGMAHPLGAFYNTPHGVANAILLPHVMRFNAGSTNEKFRDIARAMGVKVEGLSLEEARNAAVEAVFTLNRDVGIPLHLRDVGVRKEDIPALAQAAFDDVCTGGNPREASLADIVELYHTAW”, for which the “soluble on expression in E. coli” value is recorded as “not soluble”. On to “TDKVRQNEKQKRSKALAQTQVNKRLLNEHGLNTPPMMKDEADQFVVSPTNWAGIIDQALAPPRTRKSYQKSMVSISGTKAVIETRSSKN”, for which the “soluble on expression in E. coli” value was “not soluble”.

Regarding “MAHHHHHHMRMRPFTASTAATPTAAGAAPASSMSSPAPLRKARESATGSAGSYFLGSSTFSVYEEMARQLREEGWRRKTEAAIATADFILGDRFRIPYTLLRVERMARSSWFGGTRWVNYFEGSHRLTLKAAMVQLMKEVDTHWATWLPESYAVGGDQLKKADERRALLEALAAAGDDDAVWIVKPSSGAKGRHILLLRASAVPEWLERLPESSKSMYVVQRYVDRPLLLSNGRKFDIRVWALLVSPYSIYAYTQVSCRTASEPYDLSDITNTHVHLTNHCLQKDAAHFGEYEEENEMWLPQLQSYLTSIGKPADLLETRVLPAIKELLVRTLLAVMPEMAVPATEAYKCFQLFGYDMILTEEADVRLLEINGSPGVAERFLTPLVRSMRELLGAGPKDGTGSTTTTRNCDNTSHEGFSENGSSSNSGCASPTSASSSCPGRRRTSHAFSAATSATGATRNWRLEDEGFVLLWRRGDAVPPGLVDVC”, the “soluble on expression in E. coli” value is on record as “not soluble”. Consider “GMTQLDTWLANTKPLIPVIVIDDLVHAIPMAKALVAGGVHLLEVTLRTEAGLAAISAIKKAVPEAIVGAGTVCTADDFQKAIDAGAQFIVSPGLTPELIEKAKQVKLDGQWQGVFLPGVATASEVMIAAQAGITQLKCFPASAIGGAKLLKAWSGPFPDIQFCPTGGISKDNYKEYLGLPNVICAGGSWLTESKLLIEGDWNEVTRRASEIVKLSDI”, for which the “soluble on expression in E. coli” value was “soluble”. With “MGSDKIHHHHHHMPSVVGHPQGNIEAIAFVIKFLEGLGFDIRITDIEKTEQPTIIAHYPGRLSDNKIVIYGHYDVAPVKELNSWVSEEAFTLENINGRLYGRGIADNKGPLMARMIALKSLILSDKAIPEILWLIQGEEEITQGDRVAHDIFKDEIPAFGAPVYIEETGFNDLDSNTQIAFLWSPDKSDSELIPWHSLLESSLDSPRIEYRHLNKLNGIKACPLLYNLPKNAVYMGFGPNDRLHFIHRDNESLNENKLLKHQQQFEKFLANYALYNDES”, the “soluble on expression in E. coli” value is reported as “not soluble”.

On to “HHHSSGLTPRGSQMKKIAFGCDHVGFILKHEIVAHLVERGVEVIDKGTWSSERTDYPHYASQVALAVAGGEVDGGILICGTGVGISIAANKFAGIRAVVCSEPYSAQLSRQHNDTNVLAFGSRVVGLELAKMIVDAWLGAQYEGGRHQQRVEAITAIEQRRN”, for which the “soluble on expression in E. coli” value was “soluble”. In the case of “MMSGGYKSSGVGNDRSQRSVFVGNISYDVSEDTIRSIFSKAGNVLSIKMVHDRETGKPKGYGFIEFPDIQTAEVAIRNLNGYELSGRILRVDSAAGGMNMEEFGSSSNAPAPVEENPYGPECDAGKAPERISQTVASLAPEKMFELMKQLQESLKNNPSELHKFLVEHPQIAYAVLQAAVVMRIVDPQTALGLLHRNKAATLTPFHNTPQGAPPMVQQQQMPMPPKPTFAHPGPSMGPPMGPPMGPPMGHPQAPQYGQNYGQPVAPQQYKPPPQQQPPVQMRPPVQQPQQNHQEEQQNAELLMQVMQLSEHDLQMLPAGDREKIIELRQQLKRNVK”, the “soluble on expression in E. coli” value is reported as “not soluble”. With “MSLAPSTYYDAKTRPPSARAQRDAVLGPALRQLWKDNYCVYGAHKLWKTARRAGYDVGRDQVARLMRAAGIQGVRRGKRVRTTKPDPVAARHPDLVKRKFTATAPNQLWVTDLTFVPTWAGVAYVCFIVDAHSRMIVGWRVASHMRTSMVLDALEMARWSRGTTLQNLICHSDAGSQFTSIRYGERLAEIGGVPSIGTVGDSFDNALAETVNGYYKAELIYGPARSGPWKTVEDVELATLSWVYWHNTSRLHSYLGDLPPAEFEAAFYDASRSGQPLVEIQEGHHHHHH” the entry was “soluble”. As for “MIRQRRRALTPEQQQEMGQQAATRMMTYPPVVMAHTVAVFLSFDGELDTQPLIEQLWRAGKRVYLPVLHPFSAGNLLFLNYHPQSELVMNRLKIHEPKLDVRDVLPLSRLDVLITPLVAFDEYGQRLGMGGGFYDRTLQNWQHYKTQPVGYAHDCQLVEKLPVEEWDIPLPAVVTPSKVWEW”, the “soluble on expression in E. coli” value is “soluble”. “MSHPSHVRALCASLCLGAGLPVHAGHVHAGQGFLEDAKASLTARNFHLHRNFVGDASQGKAEEWTQSFILDARSGFTQGSVGFGLDVLGLYSLKLDGGKGTAGTQLLPIHDDGRPADDFGRLAVAGKLRVSNSELKIGEWMPVLPILRSDDGRSLPQTFRGGQLSANEIAGLTLYAGQFRGNSPRNDASMQDMSLFGRPAATSDRFDFAGGEYRFNGERSLLGLWNAELKDIYRQQYLQLQHSQPLGDWLLGANLGGFRGRDAGSARAGKLDNRTVSALFSARYGLHTLYLGLQKVSGDDGWMRVNGTSGGTLANDSYNASYDNPGERSWQLRYDFDFVGLGLPGLTFMTRYLHGDHVRLAGVTDDGSEWGRESELGYTLQSGAFKRLNVRWRNSSQRRDWGSNTRFDENRLIVSYPLSLL”: the “soluble on expression in E. coli” value is given as “not soluble”. With “FTLVCITAASRHHWGTEVDIFDPDLLPRGQSLQLEPWEYEKGGYFFELSEFLAENLPHFDFALPFMNMQSNKKVGREPWHISYLPL”, the “soluble on expression in E. coli” value is recorded as “not soluble”. The same measure for “MSSLRRKWISDPAFKVFKKVLPPLSSTEKEAMEAGSVWWDAELFSGKPNFTTLHHYPAPTLTAEEQAFMDNELETLLDMLDDQKIVKEDRDLPPEVWEYLRKERFFSLIISKEYGGREFSALANSTIVSRIATRSISVAVSVMVPNSLGPGELLSHYGTQEQKDYWLPRLADGTDIPCFALTGPEAGSDAGGIPDQGVVCYGMYDGEEVLGVRVSWNKR”: “not soluble”; for “MSLTILQELPKLSPLPARKLGSYTCKTVHMTTTELLPFHAVGTSPDAAAQADSNIETQFANVLHSLQVNKQRDPFDIIQDFKQICADRALSTRDKLSLDESNTALAEEFDNWDLEFKLWELVDRLFRFRALFSNKAKTELLREYDFSSMGIKQENFLRKNPAIRELSIIILWLQSHTPSLVGDETESYQTKWKNTAMAVANSDFDVLASRATDADLIDKLDIDAPLRSNRSIHPADESNDSKVFAQIYKLLLQDRVQDAIDIANNTGNYALALILVGATQEYFDPVLDKQDLDFDSIVAEQTKPSGIKHKLLWKKTVYKLSQQANLNKYEKLIYNYLCGGDISGNLLVASDDWEQTLLLYLSQLYSYNIDNFIVSQLSSEQEILPVNIPKPQLNTIAEILNTILHSGNLLTQQSENPLRVIMGSVMLDNVPSLLHNLTSSLTGEPEALKKPYISRVLTHLAIFQLLVVGTDNINNEDITTIITSYTSKLAEYKLPELIPIYLSFVPNEKDSREAYALFLSSLTDSSDRSKQIEISRRIANSISEVDEAMELAANTQEDKMMNVLRRTVERVMKDTESHYKPQAVIEVQDDINSVDDIDSKLYHSVEWFYENKMYEDAIVATIAIIRRFLLCGKLAPLKAFSKGKNFKLLLVEYDTQLQTKSLIFQNEPEIVTEEDKEELLAYASLIEGLILIDEWKKFVSTQINSEGHHHHHH”: “not soluble”. As to “MKKIHYTDNYLLKPYHPVTIHVAGAGGTGSQVITNLARMNVALQALGHPGLHVTVFDPDIITEANIGRQLFSEMELGQGKATAAVTRVNRFFGTTWTAENCRYPVRKTQENGDDRTKPANIIITCTDNTRSRLELWRFLKKYRETSVNNERAVYYWMDFGNAQTTGQVFIGTVRNKIRQPASKEFMPVPGMNVITEEVNYSTIEEKDSEPSCSLAEALERQDLYINSILAQVGCDILWRMFKEGRTLYRGAYINLDTLRVNPIPV”, the “soluble on expression in E. coli” value is given as “not soluble”. Consider “MGHHHHHHSHSSVTIGRFQSVRYDVNLEKAKELGIPVVRRITGGGSVFHDEYGEITYSVVISEDYHPMLKNIQDSYRFLAGPLVDALKDLGIEAEFSGLNDIVVRGKKISGSAQTRRRGIILQHGTLMYATRLEI”, for which the “soluble on expression in E. coli” value was “not soluble”.

Consider “MLVNGKWTADWQPVQKADDHGRFVRQVSSFRNWITPDGSAGPTGTGGFAAEAGRYRLYVALICPWASRTLMARRLKGLDGLIPVTVVNPVMGTQGWEFGGHDDAEEDPLFGARHLHEIYTRAEPQFTGRATVPVLWDMKRDAMVNNESADILRMFDTAFEGLAPSDLRLYPAALAGEIDALNAQVYDRLNNGVYKAGFASTQEAYDEAVAGVFEMLDHLEYRLTGDYIFGGALTETDIRIFVTLIRFDAAYHGLFKTNRRQIADYPRLWAYMRRILARPGVRETVNMDHITRGYYSIKALNPSRIRPVGPAHIEAALRETAAGI”, for which the “soluble on expression in E. coli” value is “not soluble”. For “NECVSKGFGCLPQSDCPQEARLSYGGCSTVCCDLSKLTGCKGKGGECNPLDRQCKELQAESASCGKGQKCCVWLH”, the “soluble on expression in E. coli” value is “soluble”.

For the sequence “MKKHIALIFTPINKKYKDALTHYAPPLGLVALANYISERLQNVRISILDGSVTHSMEDIIKFIEDEKPDIVAQSVQLISYENSLVIAKSAHNIGSINVLGGQHATQMADAIIFRQQGLIDYVSIEDGEESLLGLLEERDISEIPNLVFMKDGKINRTKYFQLDLKNAPKLDYSIVDFKPYQKLLNESNFTNPNPINNYLRVYSHKGCGNRKNSVGCVFCGRADKGVRFKSPEKFWEDIKICADEFKADYIFDVGDDFLYNHDWVSKVAEIKPDIRKKFELGIFARANRVNLSIAKKLKKIGVTDVVIGFESGDEEVLRRCNKRDTSTETSLIAADALATAGIDITASFVLGLPGENSESLKKTIKCAEKVVNIITEKLGRPPREMVGNLIEPSPGSIAYNQLLKAYPGKYYLNDYVPLDEMQRDYFKYYFGLDSLKSYLEFRKELNKAAQEIHGLVSFSDSQGWLEDEFV”, the “soluble on expression in E. coli” value is “not soluble”.

Take “MAIKGPRKHLKRLAAPANWQLPRKVKTFTVRPSPGPHSMDKSLPLLLVVRDVLKYADNAREAKKIIQTGKILIDGLKRKEYKHPAGLMDVLSIPEMDETYLVLFDESGRISLKKTDKTDVKLCKIVNKTVVKGGNIQLNLHDGRNQIVKVSDAAKAEEDVYKTGDSVLISIPEQSIAGHVAFGEGKLAYITGGKHVGEFAKIVEVENRALYSDIVTLENKDGEKFKTVKPYVFIVGQDEPVISMLEHHHHHH”: the “soluble on expression in E. coli” value is recorded as “soluble”.

Source of the values: the DeepSol protein solubility set.
